Here are results for 1 molecule from US20220249692A1 (BIOSCEPTRE AUST, published 2022).

In this experiment the target is T1, E200 epitope of P2X7R.
T1 peptide: GHNYTTNILPGLNITC
The experiment can be described thus: ELISA, antibody-conjugated liposomes on E200 epitope. (An ELISA detects its analyte on a solid surface through an enzyme-linked reagent.)

B1: single domain antibody (variable domain of SEQ ID NO: 7) conjugated to gemcitabine liposome nanoparticles (VHH)
VHH: EVQLLESGGGLVQPGGSLRLSCAASGFTFRNHDMGWVRQAPGKGLEWVSAISGSGGSTYYANSVKGRFTISRDNSKNTLYLQMNSLRAEDTAVYYCAEPKPMDTEFDYRSPGTLVTVSS
modifications: activated via Traut's reagent (thiolated) and conjugated to maleimide groups of Maleimido-Succinyl-PEG4000-Oleate on the liposome
notes: also called BIL03s; BIL03s-coated nanoparticles
As to B1, the binding result is recorded as “binds”.
